According to patent US20210079067A1 (US Dept. of Health and Human Services, published 2021):

How the values were obtained:
[1] = target: T1, mucin-domain-deleted Zaire ebolavirus GP (Zaire ebolavirus, UniProt Q05320 33-650); assay: pH 5.3
[2] = target: T1, mucin-domain-deleted Zaire ebolavirus GP; assay: pH 7.4
[3] = target: T1, mucin-domain-deleted Zaire ebolavirus GP; assay: biolayer interferometry, Fab, pH 5.3, 1:1 model; Fab, BLI, pH 5.3
[4] = target: T1, mucin-domain-deleted Zaire ebolavirus GP; assay: biolayer interferometry, Fab, pH 7.4, 1:1 model; Fab, BLI, pH 7.4
[5] = target: T1, mucin-domain-deleted Zaire ebolavirus GP
[6] = target: T1, mucin-domain-deleted Zaire ebolavirus GP; assay: biolayer interferometry, mAb, pH 7.4, 1:2 bivalent model
[7] = target: T1, mucin-domain-deleted Zaire ebolavirus GP; assay: biolayer interferometry, mAb, pH 7.4, 1:2 bivalent model (apparent)

B1: S1-4-A09 Fab (Fab, V domains shown)
VH: QVQLQESGPGLVKPSETLSLTCVVSGGILSSFYWNWIRQPPGKGLEWIGNIYYSGSPNYNASFQSRVAISVDTSKNQISLNLKSVTAADTAMYYCVRASRAYLWGSYRPTALDLWGQGSLVTVSS
VL: SYELTQPPSVSVSPGQTATITCSGDKLGDKYTSWFQQRPGQSPLLVIYQDNKRPSGLPARFSGSNSGNTATLTISGTQAMDEADYLCQVWDSGAVFGGGTKLTVL
In the case of B1, the koff [1] is reported as 0.000179 s⁻¹, the kon [1] is reported as 85200 M⁻¹ s⁻¹ and the koff [2] is reported as 0.000136 s⁻¹. The kon [2] was 131000 M⁻¹ s⁻¹, the Kd [3] was 2.1 nM and the Kd [4] was 1.04 nM.

B2: mAb100 (antibody, V domains shown)
VH: QVQLQESGPGLVKPSDTLSLTCTVSGGSLSSFYWSWIRQPPGKGLEWIGYIYYSGSPNYSPSLESRVTMSVDTTRNQISLKLDSVTAADTAVYYCVRASRSYYWGSYRPTAFDSWGQGTLVTVSS
VL: SYELTQPLSVSVSPGQTAIFTCSGDNLGDKYVCWFQQRPGQSPMLLIYQDNKRPSGIPERFSGSNSGNTATLTISGTQSTDEADYYCQTWDSTVVFGGGTKLTVL
In the case of B2, the “EC50 (read off the curve)” value [5] is reported as roughly 0.01 µg/mL, the koff [6] is reported as 8.91e-06 s⁻¹ and the kon [6] is reported as 143000 M⁻¹ s⁻¹. It also gave a Kd [7] of 0.0628 nM.
